From article PMC9482650, “Quantitative fragmentomics allow affinity mapping of interactomes” (Nature Communications, 2022)

T1: APBA1_1, Q02410
T1 sequence (Q02410 651-752, limits assumed, looked up): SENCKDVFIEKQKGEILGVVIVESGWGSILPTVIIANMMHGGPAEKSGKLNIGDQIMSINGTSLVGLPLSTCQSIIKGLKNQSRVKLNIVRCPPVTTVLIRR

T2: PDZD8, Q8NEN9
T2 sequence (Q8NEN9 361-459, limits assumed, looked up): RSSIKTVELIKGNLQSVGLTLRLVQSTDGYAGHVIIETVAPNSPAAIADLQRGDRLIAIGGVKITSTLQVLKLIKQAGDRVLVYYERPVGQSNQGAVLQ

T3: SIPA1L3, O60292
T3 sequence (O60292 961-1052, limits assumed, looked up): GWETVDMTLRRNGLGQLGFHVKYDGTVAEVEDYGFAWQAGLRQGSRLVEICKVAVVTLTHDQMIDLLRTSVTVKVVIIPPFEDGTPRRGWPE

T4: PDZD2_6, O15018
T4 sequence (O15018 2745-2839, limits assumed, looked up): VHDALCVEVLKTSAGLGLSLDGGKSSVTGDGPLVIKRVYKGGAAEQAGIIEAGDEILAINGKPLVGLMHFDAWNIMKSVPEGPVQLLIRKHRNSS

T5: MPDZ_13, O75970
T5 sequence (O75970 1982-2070, limits assumed, looked up): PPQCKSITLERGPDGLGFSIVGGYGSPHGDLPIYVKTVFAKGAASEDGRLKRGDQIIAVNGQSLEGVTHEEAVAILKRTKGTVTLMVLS

T6: APBA3_2, O96018
T6 sequence (O96018 480-570, limits assumed, looked up): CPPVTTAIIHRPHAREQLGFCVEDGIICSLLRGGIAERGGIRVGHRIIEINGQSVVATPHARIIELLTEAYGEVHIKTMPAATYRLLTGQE

T7: TJP3_2, O95049
T7 sequence (O95049 190-282, limits assumed, looked up): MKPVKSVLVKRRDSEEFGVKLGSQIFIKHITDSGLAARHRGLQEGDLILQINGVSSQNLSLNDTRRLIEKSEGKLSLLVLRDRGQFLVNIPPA

T8: SHANK3, Q9BYB0
T8 sequence (Q9BYB0 641-750, limits assumed, looked up): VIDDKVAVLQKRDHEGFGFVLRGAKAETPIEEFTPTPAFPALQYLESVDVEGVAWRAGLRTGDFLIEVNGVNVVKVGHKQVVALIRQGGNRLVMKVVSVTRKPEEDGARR

T9: SYNPO2L, Q9H987
T9 sequence (Q9H987 1-98, limits assumed, looked up): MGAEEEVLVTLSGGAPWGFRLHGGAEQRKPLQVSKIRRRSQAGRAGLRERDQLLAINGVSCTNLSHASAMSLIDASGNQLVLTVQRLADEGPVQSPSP

T10: PDZD2_5, O15018
T10 sequence (O15018 2617-2716, limits assumed, looked up): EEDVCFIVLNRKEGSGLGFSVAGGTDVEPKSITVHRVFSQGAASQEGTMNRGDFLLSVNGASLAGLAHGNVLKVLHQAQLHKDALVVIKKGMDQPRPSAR

T11: SHANK2, Q9UPX8
T11 sequence (Q9UPX8 621-730, limits assumed, looked up): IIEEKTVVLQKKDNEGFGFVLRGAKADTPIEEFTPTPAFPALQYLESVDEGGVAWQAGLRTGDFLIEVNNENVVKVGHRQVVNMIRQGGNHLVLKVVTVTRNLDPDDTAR

T12: USH1C_3, Q9Y6N9
T12 sequence (Q9Y6N9 447-547, limits assumed, looked up): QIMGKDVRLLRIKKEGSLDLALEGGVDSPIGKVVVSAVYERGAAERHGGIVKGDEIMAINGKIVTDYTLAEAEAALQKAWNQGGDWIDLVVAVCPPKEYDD


Tests used:
Assay in all cases: holdup assay
Design in all cases: key: below the threshold = too weak to quantify, mostly under pKd 3.1 to 4
SCRIB_1, Q14160 = target: SCRIB_1, Q14160
DLG1_2, Q12959 = target: DLG1_2, Q12959
APBA1_1, Q02410 = target: T1, APBA1_1, Q02410
PDZD8, Q8NEN9 = target: T2, PDZD8, Q8NEN9; settings: modified: phospho on T at position -2 from the C-terminal residue
SIPA1L3, O60292 = target: T3, SIPA1L3, O60292; settings: modified: phospho on T at position -2 from the C-terminal residue
PDZD2_6, O15018 = target: T4, PDZD2_6, O15018; settings: modified: phospho on T at position -2 from the C-terminal residue
MPDZ_13, O75970 = target: T5, MPDZ_13, O75970; settings: modified: phospho on T at position -2 from the C-terminal residue
APBA3_2, O96018 = target: T6, APBA3_2, O96018; settings: modified: phospho on T at position -2 from the C-terminal residue
MAGI1_3, Q96QZ7 = settings: modified: phospho on T at position -2 from the C-terminal residue
MAGI3_6, Q5TCQ9 = settings: modified: phospho on T at position -2 from the C-terminal residue
TJP3_2, O95049 = target: T7, TJP3_2, O95049; settings: modified: phospho on T at position -2 from the C-terminal residue
PARD3B_3, Q8TEW8 = settings: modified: phospho on T at position -2 from the C-terminal residue
SHANK3, Q9BYB0 = target: T8, SHANK3, Q9BYB0; settings: modified: phospho on T at position -2 from the C-terminal residue
SYNPO2L, Q9H987 = target: T9, SYNPO2L, Q9H987; settings: modified: phospho on T at position -2 from the C-terminal residue
PDZD2_5, O15018 = target: T10, PDZD2_5, O15018; settings: modified: phospho on T at position -2 from the C-terminal residue
SHANK2, Q9UPX8 = target: T11, SHANK2, Q9UPX8; settings: modified: phospho on T at position -2 from the C-terminal residue
USH1C_3, Q9Y6N9 = target: T12, USH1C_3, Q9Y6N9; settings: modified: phospho on T at position -2 from the C-terminal residue
SCRIB_4, Q14160 = settings: modified: phospho on T at position -2 from the C-terminal residue
[1] = plain residues with an end cap or a label only (N-terminal biotin on a linker: ado-ado)
[2] = plain residues with an end cap or a label only (N-terminal biotin on a linker: ahx)
[3] = modified: phospho on T at position -2 from the C-terminal residue

Chain of SCRIB_1, Q14160 (Q14160 718-814): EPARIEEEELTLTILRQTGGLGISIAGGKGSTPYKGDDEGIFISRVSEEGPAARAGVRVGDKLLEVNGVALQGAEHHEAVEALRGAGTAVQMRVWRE
Chain of DLG1_2, Q12959 (Q12959 314-412): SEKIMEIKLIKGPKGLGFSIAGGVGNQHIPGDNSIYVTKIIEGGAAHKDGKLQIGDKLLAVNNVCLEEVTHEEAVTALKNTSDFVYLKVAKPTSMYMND
Chain of SCRIB_4, Q14160 (Q14160 1095-1204): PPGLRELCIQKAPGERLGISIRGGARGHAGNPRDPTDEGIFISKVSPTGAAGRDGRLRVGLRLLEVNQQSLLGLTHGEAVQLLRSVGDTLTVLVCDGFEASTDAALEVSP
Chain of MAGI3_6, Q5TCQ9 (Q5TCQ9 1014-1103): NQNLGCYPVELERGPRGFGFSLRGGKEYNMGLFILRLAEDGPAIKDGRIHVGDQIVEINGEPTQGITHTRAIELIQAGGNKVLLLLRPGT
Chain of MAGI1_3, Q96QZ7 (Q96QZ7 638-725): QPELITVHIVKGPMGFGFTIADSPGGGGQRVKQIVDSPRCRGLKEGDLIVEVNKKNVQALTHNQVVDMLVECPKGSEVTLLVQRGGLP
Chain of PARD3B_3, Q8TEW8 (Q8TEW8 490-594): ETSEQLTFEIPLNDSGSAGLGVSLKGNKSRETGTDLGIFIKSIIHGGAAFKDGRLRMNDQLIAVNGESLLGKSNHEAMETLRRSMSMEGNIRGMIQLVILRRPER

Binder	pKd (SCRIB_1, Q14160; [1])	pKd (DLG1_2, Q12959; [1])	pKd (APBA1_1, Q02410; [1])	also measured
EKCGKEFSEF [PRKACA, P17612]	below the threshold	3.52	below the threshold	–
EPQYQPGENL [SRC, P12931]	3.49	below the threshold	below the threshold	–
REEPDHSTEV [CCRL2, O00421]	4.03	4.77	below the threshold	–
GTGYDRKDYV [CLDN3, O15551]	below the threshold	below the threshold	below the threshold	–
KPGKGSETVV [FZD4, Q9ULV1]	4.04	5.12	below the threshold	–
RSSGGDDFWF [KCNV1, Q6PIU1]	below the threshold	3.67	below the threshold	–
EDPRVEVTQF [SLC22A9, Q8IVM8]	3.91	below the threshold	below the threshold	–
RFQQRMQTHV [KIRREL1, Q96J84]	4.25	4.74	below the threshold	–
SLNANEVEWF [RNF130, Q86XS8]	3.77	below the threshold	3.56	–
QSYPSKHDYV [CLDN18, P56856]	below the threshold	3.71	below the threshold	–
RDPPAEWTRV [PTPN18, Q99952]	4.1	4.48	below the threshold	–
EKQAKGDTEF [CACYBP, Q9HB71]	–	–	–	pKd (SCRIB_1, Q14160; [2]): below the threshold; pKd (DLG1_2, Q12959; [2]): below the threshold; pKd (APBA1_1, Q02410; [2]): below the threshold
SSRTRRETQL [HPV16-E6_-2P, P03126]	–	–	–	pKd (PDZD8, Q8NEN9): below the threshold; pKd (SIPA1L3, O60292): below the threshold; pKd (PDZD2_6, O15018): below the threshold; pKd (MPDZ_13, O75970): below the threshold; pKd (APBA3_2, O96018): below the threshold; pKd (MAGI1_3, Q96QZ7): below the threshold; pKd (SCRIB_1, Q14160; [3]): below the threshold; pKd (MAGI3_6, Q5TCQ9): below the threshold; pKd (TJP3_2, O95049): below the threshold; pKd (PARD3B_3, Q8TEW8): below the threshold; pKd (SHANK3, Q9BYB0): below the threshold; pKd (SYNPO2L, Q9H987): below the threshold; pKd (PDZD2_5, O15018): below the threshold; pKd (SHANK2, Q9UPX8): below the threshold; pKd (DLG1_2, Q12959; [3]): below the threshold; pKd (APBA1_1, Q02410; [3]): below the threshold; pKd (USH1C_3, Q9Y6N9): below the threshold; pKd (SCRIB_4, Q14160): below the threshold
APIAGFSSFV [SDK2, Q58EX2]	below the threshold	4.45	below the threshold	–
TRKRSGEAAV [PFKM, P08237]	below the threshold	3.95	below the threshold	–
DGVNEKVSCV [HTR2A, P28223]	below the threshold	4.82	below the threshold	–
ELSATVTTDC [TRIP6, Q15654]	4.48	3.67	below the threshold	–
TESNLQTSSC [CGN, Q9P2M7]	–	–	–	pKd (SCRIB_1, Q14160; [2]): below the threshold; pKd (DLG1_2, Q12959; [2]): below the threshold; pKd (APBA1_1, Q02410; [2]): below the threshold
TGLWKHETTV [ADGRA3, Q8IWK6]	4.74	5.48	below the threshold	–
MHIQEKGFHV [EPHA6, Q9UF33]	below the threshold	below the threshold	below the threshold	–
EDLEDEWEVI [TECPR2, O15040]	below the threshold	below the threshold	below the threshold	–
AAVENKVTDL [PLXNB1, O43157]	4.62	4.45	below the threshold	–
QKAPTKEFYA [SDC2, P34741]	below the threshold	3.49	below the threshold	–
PYPTADHMLA [JUP, P14923]	below the threshold	3.6	below the threshold	–
QLSFNTDTLC [ABCA2, Q9BZC7]	below the threshold	3.88	below the threshold	–
LAHVKHKEQI [AQP3, Q92482]	below the threshold	below the threshold	below the threshold	–
APSRKLNTEI [TIAM1, Q13009]	–	–	–	pKd (SCRIB_1, Q14160; [2]): below the threshold; pKd (DLG1_2, Q12959; [2]): 3.97; pKd (APBA1_1, Q02410; [2]): below the threshold
VLYPREGTEV [FOXI1, Q12951]	3.99	4.84	below the threshold	–
DDASLPVSDV [PLEKHA1, Q9HB21]	below the threshold	below the threshold	below the threshold	–
